# Source: patent US20240209076A1 (KODIAK SCIENCES, published 2024)
# How the values were obtained:
# [1] = target: T1, human IL-6 (human, UniProt P05231 30-212); experiment: SPR Biacore, supernatant Ab on Protein A chip, 37 C
# T1 construct: IL-6 flowed over captured antibodies
# T1 sequence (P05231 30-212 limits assumed): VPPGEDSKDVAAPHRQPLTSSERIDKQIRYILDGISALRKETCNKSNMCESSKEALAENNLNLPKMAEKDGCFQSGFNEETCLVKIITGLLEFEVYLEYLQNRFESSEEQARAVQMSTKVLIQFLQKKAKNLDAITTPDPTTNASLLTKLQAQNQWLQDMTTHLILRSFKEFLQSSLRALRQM
# [2] = target: T1, human IL-6; experiment: SPR Biacore, purified Ab on Protein A chip, 37 C
# Description: (§1) Antibodies were captured on a Protein A chip (GE) by injecting 1:20 cell supernatant dilutions at 10 μL/min for 60 seconds. […] The sensor chip was regenerated by a 60 seconds injection of 10 mM Glycine pH 1.7 at the flow rate of 50 μL/min. […] For this setup, 1 μg/mL of purified antibody was injected over a Protein A chip at 10 μL/min for 25 seconds. […] The sensor chip was regenerated by a 60 seconds injection of 10 mM Glycine pH 1.7 at flow rate of 50 μL/min. Data analysis for supernatant and purified samples were performed using BIAevaluation software (GE). All sensorgrams were double reference subtracted and fit using a 1:1 Langmuir binding model.
# [3] = target: T2, human IL-6 (human, UniProt P05231 30-212); experiment: SPR Biacore, supernatant, Protein A capture, 37 C
# Method in brief: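 Antibodies from 1:20-diluted culture supernatant in HBS-EP+ were captured on a Protein A chip at 37 C, with 10 mM glycine pH 1.7 regeneration. Sensorgrams were double-reference subtracted and fitted to a 1:1 Langmuir model.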
# T2 sequence (P05231 30-212 limits assumed): as above
# [4] = target: T2, human IL-6; experiment: SPR Biacore, purified, Protein A capture, 37 C
# Description: as §1
Kd [1] [nM],koff [1] [s⁻¹],kon [1] [M⁻¹ s⁻¹],Kd [2] [nM],koff [2] [s⁻¹],kon [2] [M⁻¹ s⁻¹],Kd [3] [nM],koff [3] [s⁻¹],kon [3] [M⁻¹ s⁻¹],Kd [4] [nM],koff [4] [s⁻¹],kon [4] [M⁻¹ s⁻¹],Binder
0.611,0.000414,677000,0.286,0.000319,1.12e+06,–,–,–,–,–,–,"anti-IL-6 antibody, heavy chain WT / light chain M32L, M50D, N52S, M88Q (antibody, IgG1, V domains shown, Full IgG1 (Expi293); VL = variant III) VH: EVQLVESGGGLVQPGGSLRLSCAASGFTFSPFAMSWVRQAPGKGLEWVAKISPGGSWTYYSDTVTGRFTFSLDTSKSTAYLQMNSLRAEDTAVYYCARQLWGYYALDIWGQGTLVTVSS VL: DIQLTQSPSSLSASVGDRVTITCSASISVSYLYWYQQKPGKAPKLLIYDDSSLASGVPSRFSGSGSGTDFTLTISSLQPEDFATYYCQQWSGYPYTFGQGTKVEIK"
–,–,–,–,–,–,0.233,0.0016,6.87e+06,0.251,0.000694,2.76e+06,"Anti-IL-6 antibody, heavy chain S35H, G66D, L100G / light chain M32L, M50D, N52S, M88Q (antibody, IgG1, V domains shown, IgG1; variable domains only; VL is variant III) VH: EVQLVESGGGLVQPGGSLRLSCAASGFTFSPFAMHWVRQAPGKGLEWVAKISPGGSWTYYSDTVTDRFTFSLDTSKSTAYLQMNSLRAEDTAVYYCARQGWGYYALDIWGQGTLVTVSS VL: DIQLTQSPSSLSASVGDRVTITCSASISVSYLYWYQQKPGKAPKLLIYDDSSLASGVPSRFSGSGSGTDFTLTISSLQPEDFATYYCQQWSGYPYTFGQGTKVEIK"
–,–,–,–,–,–,0.114,0.000913,8.03e+06,0.117,0.000424,3.61e+06,"Anti-IL-6 antibody, heavy chain S35H, G66D, L100S / light chain M32L, M50D, N52S, M88Q (antibody, IgG1, V domains shown, IgG1; variable domains only; VL is variant III) VH: EVQLVESGGGLVQPGGSLRLSCAASGFTFSPFAMHWVRQAPGKGLEWVAKISPGGSWTYYSDTVTDRFTFSLDTSKSTAYLQMNSLRAEDTAVYYCARQSWGYYALDIWGQGTLVTVSS VL: DIQLTQSPSSLSASVGDRVTITCSASISVSYLYWYQQKPGKAPKLLIYDDSSLASGVPSRFSGSGSGTDFTLTISSLQPEDFATYYCQQWSGYPYTFGQGTKVEIK"
–,–,–,–,–,–,0.403,0.000607,1.5e+06,0.195,0.000238,1.22e+06,"Anti-IL-6 antibody, heavy chain S35H, G66D / light chain M32L, M50D, N52S, M88Q (antibody, IgG1, V domains shown, IgG1; variable domains only; VL is variant III) VH: EVQLVESGGGLVQPGGSLRLSCAASGFTFSPFAMHWVRQAPGKGLEWVAKISPGGSWTYYSDTVTDRFTFSLDTSKSTAYLQMNSLRAEDTAVYYCARQLWGYYALDIWGQGTLVTVSS VL: DIQLTQSPSSLSASVGDRVTITCSASISVSYLYWYQQKPGKAPKLLIYDDSSLASGVPSRFSGSGSGTDFTLTISSLQPEDFATYYCQQWSGYPYTFGQGTKVEIK"
–,–,–,–,–,–,0.204,0.00278,1.36e+07,0.263,0.000481,1.83e+06,"Anti-IL-6 antibody, heavy chain S35H, G66D, L100T / light chain M32L, M50D, N52S, M88Q (antibody, IgG1, V domains shown, IgG1; variable domains only; VL is variant III) VH: EVQLVESGGGLVQPGGSLRLSCAASGFTFSPFAMHWVRQAPGKGLEWVAKISPGGSWTYYSDTVTDRFTFSLDTSKSTAYLQMNSLRAEDTAVYYCARQTWGYYALDIWGQGTLVTVSS VL: DIQLTQSPSSLSASVGDRVTITCSASISVSYLYWYQQKPGKAPKLLIYDDSSLASGVPSRFSGSGSGTDFTLTISSLQPEDFATYYCQQWSGYPYTFGQGTKVEIK"
–,–,–,–,–,–,0.0834,0.00486,5.82e+07,0.109,0.000406,3.72e+06,"Anti-IL-6 antibody, heavy chain S35H, G66D, L100A / light chain M32L, M50D, N52S, M88Q (antibody, IgG1, V domains shown, IgG1; variable domains only; VL is variant III) VH: EVQLVESGGGLVQPGGSLRLSCAASGFTFSPFAMHWVRQAPGKGLEWVAKISPGGSWTYYSDTVTDRFTFSLDTSKSTAYLQMNSLRAEDTAVYYCARQAWGYYALDIWGQGTLVTVSS VL: DIQLTQSPSSLSASVGDRVTITCSASISVSYLYWYQQKPGKAPKLLIYDDSSLASGVPSRFSGSGSGTDFTLTISSLQPEDFATYYCQQWSGYPYTFGQGTKVEIK"
–,–,–,–,–,–,0.184,0.000922,5.01e+06,0.238,0.000385,1.62e+06,"Anti-IL-6 antibody, heavy chain S35H, G66D, L100V / light chain M32L, M50D, N52S, M88Q (antibody, IgG1, V domains shown, IgG1; variable domains only; VL is variant III) VH: EVQLVESGGGLVQPGGSLRLSCAASGFTFSPFAMHWVRQAPGKGLEWVAKISPGGSWTYYSDTVTDRFTFSLDTSKSTAYLQMNSLRAEDTAVYYCARQVWGYYALDIWGQGTLVTVSS VL: DIQLTQSPSSLSASVGDRVTITCSASISVSYLYWYQQKPGKAPKLLIYDDSSLASGVPSRFSGSGSGTDFTLTISSLQPEDFATYYCQQWSGYPYTFGQGTKVEIK"
0.166,0.000539,3.24e+06,0.212,0.000254,1.2e+06,–,–,–,–,–,–,"anti-IL-6 antibody, heavy chain S35H, G66D / light chain M32L, M50D, N52S, M88Q (antibody, IgG1, V domains shown, Full IgG1 (Expi293); VL = variant III) VH: EVQLVESGGGLVQPGGSLRLSCAASGFTFSPFAMHWVRQAPGKGLEWVAKISPGGSWTYYSDTVTDRFTFSLDTSKSTAYLQMNSLRAEDTAVYYCARQLWGYYALDIWGQGTLVTVSS VL: DIQLTQSPSSLSASVGDRVTITCSASISVSYLYWYQQKPGKAPKLLIYDDSSLASGVPSRFSGSGSGTDFTLTISSLQPEDFATYYCQQWSGYPYTFGQGTKVEIK"
0.296,0.000483,1.63e+06,0.244,0.000412,1.69e+06,–,–,–,–,–,–,"anti-IL-6 antibody, heavy chain G66D / light chain M32L, M50D, N52S, M88Q (antibody, IgG1, V domains shown, Full IgG1 (Expi293); VL = variant III) VH: EVQLVESGGGLVQPGGSLRLSCAASGFTFSPFAMSWVRQAPGKGLEWVAKISPGGSWTYYSDTVTDRFTFSLDTSKSTAYLQMNSLRAEDTAVYYCARQLWGYYALDIWGQGTLVTVSS VL: DIQLTQSPSSLSASVGDRVTITCSASISVSYLYWYQQKPGKAPKLLIYDDSSLASGVPSRFSGSGSGTDFTLTISSLQPEDFATYYCQQWSGYPYTFGQGTKVEIK"
–,–,–,–,–,–,0.191,0.000822,4.29e+06,0.188,0.000279,1.49e+06,"Anti-IL-6 antibody, heavy chain S35H, G66D, L100K / light chain M32L, M50D, N52S, M88Q (antibody, IgG1, V domains shown, IgG1; variable domains only; VL is variant III) VH: EVQLVESGGGLVQPGGSLRLSCAASGFTFSPFAMHWVRQAPGKGLEWVAKISPGGSWTYYSDTVTDRFTFSLDTSKSTAYLQMNSLRAEDTAVYYCARQKWGYYALDIWGQGTLVTVSS VL: DIQLTQSPSSLSASVGDRVTITCSASISVSYLYWYQQKPGKAPKLLIYDDSSLASGVPSRFSGSGSGTDFTLTISSLQPEDFATYYCQQWSGYPYTFGQGTKVEIK"
–,–,–,–,–,–,0.649,0.000559,861000,0.214,0.000132,615000,"Anti-IL-6 antibody, heavy chain WT / light chain WT (antibody, IgG1, V domains shown, IgG1; variable domains only; also called parent; wild-type) VH: EVQLVESGGGLVQPGGSLRLSCAASGFTFSPFAMSWVRQAPGKGLEWVAKISPGGSWTYYSDTVTGRFTFSLDTSKSTAYLQMNSLRAEDTAVYYCARQLWGYYALDIWGQGTLVTVSS VL: DIQLTQSPSSLSASVGDRVTITCSASISVSYMYWYQQKPGKAPKLLIYDMSNLASGVPSRFSGSGSGTDFTLTISSLQPEDFATYYCMQWSGYPYTFGQGTKVEIK"
–,–,–,–,–,–,0.148,0.000734,4.97e+06,0.149,0.000336,2.26e+06,"Anti-IL-6 antibody, heavy chain S35H, G66D, L100Q / light chain M32L, M50D, N52S, M88Q (antibody, IgG1, V domains shown, IgG1; variable domains only; VL is variant III) VH: EVQLVESGGGLVQPGGSLRLSCAASGFTFSPFAMHWVRQAPGKGLEWVAKISPGGSWTYYSDTVTDRFTFSLDTSKSTAYLQMNSLRAEDTAVYYCARQQWGYYALDIWGQGTLVTVSS VL: DIQLTQSPSSLSASVGDRVTITCSASISVSYLYWYQQKPGKAPKLLIYDDSSLASGVPSRFSGSGSGTDFTLTISSLQPEDFATYYCQQWSGYPYTFGQGTKVEIK"
